Experimental data taken from US20180037644A1 (Pfizer, published 2018).
Like-named read-outs stand apart in the source and are kept apart here.

Legend:
[1] = target: T1, cynomolgus monkey IL-33 (cys mut) (cynomolgus monkey); test: cell-based or functional assay
T1 chain: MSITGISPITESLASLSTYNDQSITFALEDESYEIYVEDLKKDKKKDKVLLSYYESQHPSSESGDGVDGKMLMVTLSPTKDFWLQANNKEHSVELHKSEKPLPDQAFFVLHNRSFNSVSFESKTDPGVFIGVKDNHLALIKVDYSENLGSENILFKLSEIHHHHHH

[2] = target: T2, human IL-33 (mm2) (human, UniProt O95760 112-270); test: cell-based or functional assay
T2 chain: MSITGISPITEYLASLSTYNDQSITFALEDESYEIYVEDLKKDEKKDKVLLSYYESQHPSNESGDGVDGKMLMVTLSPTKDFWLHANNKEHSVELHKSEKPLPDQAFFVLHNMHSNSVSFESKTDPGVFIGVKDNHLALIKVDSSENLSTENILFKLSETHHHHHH

[3] = target: T1, cynomolgus monkey IL-33 (cys mut); test: SPR, IgG captured by anti-human Fc, IL-33 in solution
Method: (§1) Binding to human and cynomolgus monkey IL-33 was measured by surface plasmon resonance using a BIAcore T200 instrument. An anti-human Fc antibody was immobilized on a CM5 chip, and anti-IL-33 antibodies were captured.

[4] = target: T2, human IL-33 (mm2); test: as above
Method: as §1

[5] = target: T2, human IL-33 (mm2); test: cell-based or functional assay
[6] = target: T3, human IL-33 WT (R&D) (human, UniProt O95760 112-270); test: cell-based or functional assay
T3 sequence: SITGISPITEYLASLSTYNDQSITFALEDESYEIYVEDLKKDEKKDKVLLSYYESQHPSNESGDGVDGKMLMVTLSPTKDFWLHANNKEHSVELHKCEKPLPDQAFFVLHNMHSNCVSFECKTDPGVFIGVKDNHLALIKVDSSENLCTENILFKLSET

[7] = target: T2, human IL-33 (mm2); test: cell-based or functional assay
[8] = target: T1, cynomolgus monkey IL-33 (cys mut); test: cell-based or functional assay
[9] = target: T3, human IL-33 WT (R&D); test: cell-based or functional assay; remark: listed apart in the source
[10] = target: T2, human IL-33 (mm2); test: cell-based or functional assay
[11] = target: T1, cynomolgus monkey IL-33 (cys mut); test: cell-based or functional assay
[12] = target: T2, human IL-33 (mm2); test: cell-based or functional assay
[13] = target: T1, cynomolgus monkey IL-33 (cys mut); test: cell-based or functional assay
[14] = target: T3, human IL-33 WT (R&D); test: cell-based or functional assay; remark: listed apart in the source
[15] = target: T2, human IL-33 (mm2); test: cell-based or functional assay
[16] = target: T1, cynomolgus monkey IL-33 (cys mut); test: cell-based or functional assay
[17] = target: T2, human IL-33 (mm2); test: cell-based or functional assay
[18] = target: T1, cynomolgus monkey IL-33 (cys mut); test: cell-based or functional assay
[19] = target: T2, human IL-33 (mm2); test: cell-based or functional assay
[20] = target: T2, human IL-33 (mm2); test: cell-based or functional assay
[21] = target: T3, human IL-33 WT (R&D); test: cell-based or functional assay; remark: listed apart in the source
[22] = target: T2, human IL-33 (mm2); test: cell-based or functional assay

B1: 7E8 CDR graft (antibody, human IgG1, kappa)
heavy: HSEVQLVESGGGLVQPGGSLRLSCAASGFTFSSYWMYWVRQAPGKGLEWVASITPNGGNTYYPDSVKGRFTISRDNAKNSLYLQMNSLRAEDTAVYYCARGHYYYTSYSLGYWGQGTLVTVSSASTKGPSVFPLAPSSKSTSGGTAALGCLVKDYFPEPVTVSWNSGALTSGVHTFPAVLQSSGLYSLSSVVTVPSSSLGTQTYICNVNHKPSNTKVDKKVEPKSCDKTHTCPPCPAPEAAGAPSVFLFPPKPKDTLMISRTPEVTCVVVDVSHEDPEVKFNWYVDGVEVHNAKTKPREEQYNSTYRVVSVLTVLHQDWLNGKEYKCKVSNKALPAPIEKTISKAKGQPREPQVYTLPPSREEMTKNQVSLTCLVKGFYPSDIAVEWESNGQPENNYKTTPPVLDSDGSFFLYSKLTVDKSRWQQGNVFSCSVMHEALHNHYTQKSLSLSPGK
light: DIQMTQSPSSLSASVGDRVTITCKASQNINKHLDWYQQKPGKAPKLLIYFTNNLQTGVPSRFSGSGSGTDFTLTISSLQPEDFATYYCFQYNNGWTFGGGTKVEIKRTVAAPSVFIFPPSDEQLKSGTASVVCLLNNFYPREAKVQWKVDNALQSGNSQESVTEQDSKDSTYSLSSTLTLSKADYEKHKVYACEVTHQGLSSPVTKSFNRGEC
notes: also called CDR-grafted 7E8; 7E8 CDR-grafted
- IC50, HEK293 ST2 NFkB [1]: 77 pM
- IC50, HEK293 ST2 NFkB [2]: 57 pM
- Kd [3]: 142 pM
- Kd [4]: 171 pM
- IC50, IFN-γ production in human PBMC [5]: 1.4 pM
- EC50 of IL-33 + 2 pM 7E8, HEK293 ST2 NFkB reporter cells [6]: 8 pM
- EC50 of IL-33 + 20 pM 7E8, HEK293 ST2 NFkB reporter cells [6]: 10.2 pM
- EC50 of IL-33 + 200 pM 7E8, HEK293 ST2 NFkB reporter cells [6]: 25.8 pM
- EC50 of IL-33 + 2 nM 7E8, HEK293 ST2 NFkB reporter cells [6]: 103 pM
- EC50 of IL-33 + 20 nM 7E8, HEK293 ST2 NFkB reporter cells [6]: 653 pM
- EC50 of IL-33 + 0.2 pM 7E8, human PBMC donor 149 [7]: 0.9 pM
- EC50 of IL-33 + 0.2 pM 7E8, human PBMC donor 172 [7]: 15.1 pM
- EC50 of IL-33 + 2 pM 7E8, human PBMC donor 149 [7]: 2.6 pM
- EC50 of IL-33 + 2 pM 7E8, human PBMC donor 172 [7]: 23.2 pM
- EC50 of IL-33 + 20 pM 7E8, HEK293 ST2 NFkB reporter cells [7]: 2.6 pM
- EC50 of IL-33 + 20 pM 7E8, human PBMC donor 149 [7]: 29.1 pM
- EC50 of IL-33 + 20 pM 7E8, human PBMC donor 172 [7]: 154 pM
- EC50 of IL-33 + 200 pM 7E8, HEK293 ST2 NFkB reporter cells [7]: 29.1 pM
- EC50 of IL-33 + 200 pM 7E8, human PBMC donor 149 [7]: 262 pM
- EC50 of IL-33 + 200 pM 7E8, human PBMC donor 172 [7]: 400 pM
- EC50 of IL-33 + 2 nM 7E8, HEK293 ST2 NFkB reporter cells [7]: 262 pM
- EC50 of IL-33 + 2 nM 7E8, human PBMC donor 149 [7]: 2830 pM
- EC50 of IL-33 + 2 nM 7E8, human PBMC donor 172 [7]: 1220 pM
- EC50 of IL-33 + 20 nM 7E8, HEK293 ST2 NFkB reporter cells [7]: 2830 pM
- IC50, HEK293 ST2 NFkB [8]: 184 pM
- IC50, HEK293 ST2 NFkB [9]: 322 pM
- IC50, HEK293 ST2 NFkB [10]: 93 pM
- IC50, HEK293 ST2 NFkB cyno IL-33 [11]: 180 pM
- IC50, HEK293 ST2 NFkB [12]: 114 pM
- IC50, PBMC mm2 [12]: 4 pM
- IC50, whole blood mm2 [12]: 9 pM
- IC50, HEK293 ST2 NFkB [13]: 69 pM
- IC50, HEK293 ST2 NFkB [14]: 3210 pM
- IC50, HEK293 ST2 NFkB [15]: 43 pM
- IC50, HEK293 ST2 NFkB [16]: 54 pM
- IC50, HEK293 ST2 NFkB [17]: 40 pM
- IC50, HEK293 ST2 NFkB [18]: 131 pM
- IC50, HEK293 ST2 NFkB [19]: 59 pM
- IC50, HEK293 ST2 NFkB [20]: 19 pM
- IC50, human whole blood [21]: 387 pM
- IC50, human whole blood [22]: 14 pM
